Changes are numbered by the printed parent chain.
B1: Antibody 2 (antibody, V domains shown)
VH: QVQLVQSGAEVKKPGSSVKVSCKTSGGTFSSYAVTWVRQAPGQGLEWMGGIIGMFGTTNYAQKFQGRVTITADELTSTAYMELSSLRSEDTAVYYCARGSYYYESSLDYWGRGTL
VL: ETTLTQSPATLSVSPGERATLSCRASQSVSRNLAWYQQKPGQAPRLLIYGASSRATGIPDRFSGSGSGTDFTLTISRLEPEDFAVYYCQQYGSSSITFGQGTRLEIKR
B2: Antibody 3 (antibody, V domains shown)
V domain 1: B1 VH with Q1E, G50A, E89D, R112K
V domain 2: QSVLTQPPSVSGAPGQRVTISCGGSRSNIGAGYDVHWYQQFPGTAPKVVIYGNNNRPSGVPDRFSGSKSGTSASLAITGLQAEDEANYYCQSYDTNLGGSIFGGGTQVTVL
B3: Antibody 1 (antibody, V domains shown)
VH: B1 VH with K19R, V68L, L75M, S105T, S106T
VL: ETTLTQSPGTLSLSPGERATLSCRVSQSVSSNYLAWYQQKPGQAPRLLIYGASSRATGIPDRFSGSGSGTDFTLTISRLEPEDFAVYYCQQYGTSPRAFGHGTKVEIKR
B4: Antibody 4 (antibody, V domains shown)
VH: QVQLQESGPGLVKPSETLSLTCTVSGYSFDSGYYWGWLRQPPGKGLEWIGSIYHSRNTYYNPSLKSRVTISVDTSKNQFSLQLSSVTAADTAVYYCARGTWYSSNLRYWFDPWGKGTL
VL: NFMLTQPHSVSESPGKTVTISCTGSGGNIARNYVQWYQQRPGSAPVTVILEDDKRPSGIPDRFSGSIDRSSNSASLTISGLRTEDEALYYCQSYDDSDLVVFGGGTKLT

Experiments:
[1] = biological target: H5 hemagglutinin of influenza A/Vietnam/1203/04 (H5N1) (influenza A virus H5N1 A/Vietnam/1203/04)
[2] = biological target: H5 hemagglutinin of influenza A/Vietnam/1203/04 (H5N1) (influenza A virus H5N1 A/Vietnam/1203/04); test: cell-based or functional assay
[3] = biological target: H5 hemagglutinin of influenza A/Turkey/65596/06 (H5N1) (influenza A virus H5N1 A/Turkey/65596/06); test: cell-based or functional assay
[4] = biological target: H5 hemagglutinin of influenza A/Indonesia/5/05 (H5N1) (influenza A virus H5N1 A/Indonesia/5/05); test: cell-based or functional assay
[5] = biological target: H1 hemagglutinin of influenza A/New Caledonia/20/99 (H1N1) (influenza A virus H1N1 A/New Caledonia/20/99); test: cell-based or functional assay

| Binder | Neutralization (MIC), H5N1 Vietnam 1203 virus, microneutralization [1] [µg/mL] | Minimum inhibitory concentrations required to neutralize virus [2] [µg/mL] | Minimum inhibitory concentrations required to neutralize virus [3] [µg/mL] | Minimum inhibitory concentrations required to neutralize virus [4] [µg/mL] | Minimum inhibitory concentrations required to neutralize virus [5] [µg/mL] |
| --- | --- | --- | --- | --- | --- |
| B1 | 188 | 63 | 108 | 27 | – |
| B2 | 175 | – | 31 | 16 | – |
| B3 | – | – | 9.3 | 9.3 | 9 |
| B4 | – | – | – | > 333 | > 333 |
